Values of other authors, collected in paper PMC11574045, “A cofactor-induced repressive type of transcription factor condensation can be induced by synthetic peptides to suppress tumorigenesis” (The EMBO Journal, 2024).

Target: VGLL4 (Homo sapiens) (UniProt Q14135)
Conditions: cited from earlier work

Sequence of TEAD4 (Q15561 whole entry): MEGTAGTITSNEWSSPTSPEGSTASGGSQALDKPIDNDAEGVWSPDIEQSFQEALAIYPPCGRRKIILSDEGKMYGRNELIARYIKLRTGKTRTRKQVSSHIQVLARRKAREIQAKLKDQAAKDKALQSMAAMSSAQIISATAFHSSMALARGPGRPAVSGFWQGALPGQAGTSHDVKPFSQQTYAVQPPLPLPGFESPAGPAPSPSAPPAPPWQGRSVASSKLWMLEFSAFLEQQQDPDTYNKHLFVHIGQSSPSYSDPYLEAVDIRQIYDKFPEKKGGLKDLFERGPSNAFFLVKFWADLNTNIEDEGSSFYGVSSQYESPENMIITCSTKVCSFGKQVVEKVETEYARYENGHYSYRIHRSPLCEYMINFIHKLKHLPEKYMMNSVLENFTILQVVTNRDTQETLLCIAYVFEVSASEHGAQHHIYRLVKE
Sequence of VGLL4 (Homo sapiens) (Q14135 whole entry): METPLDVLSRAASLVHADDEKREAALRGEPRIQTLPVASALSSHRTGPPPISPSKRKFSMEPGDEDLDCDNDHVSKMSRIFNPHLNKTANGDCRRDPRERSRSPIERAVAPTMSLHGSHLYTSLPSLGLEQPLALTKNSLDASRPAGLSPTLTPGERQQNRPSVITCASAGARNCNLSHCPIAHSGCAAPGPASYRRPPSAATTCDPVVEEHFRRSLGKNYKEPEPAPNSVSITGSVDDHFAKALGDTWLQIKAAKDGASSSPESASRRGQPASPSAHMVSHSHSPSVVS

**Q.** For TEAD4 (from UniProt Q15561), which Kd is on record?
**A.** The Kd was 6.8 nM.
